# Assay results taken from publication doi:10.1101/2021.06.15.447100.
# Legend:
# [1] = biological target: BG505 SOSIP.664 (HIV-1 (clade A, BG505)); assay: SEC
# [2] = biological target: C.1086 NFL gp140 (Native Flexibly Linked with I559P) (HIV-1 (clade C, C.1086)); assay: SEC
# [3] = biological target: C.1086 SOSIP gp140 (HIV-1 (clade C, C.1086)); assay: SEC
# [4] = biological target: C.1086 UFO gp140 (Uncleaved preFusion Optimized, no disulfide linkage between A501 and T605) (HIV-1 (clade C, C.1086)); assay: negative stain electron microscopy
# [5] = biological target: C.1086 UFO gp140 (Uncleaved preFusion Optimized, no disulfide linkage between A501 and T605) (HIV-1 (clade C, C.1086)); assay: SEC
substance,measurement,setting,value
BG505 SOSIP.664 (natural protein),stoichiometry N,[1],3
C.1086 NFL gp140 (Native Flexibly Linked with I559P) (natural protein),stoichiometry N,[2],3
C.1086 SOSIP gp140 (natural protein),stoichiometry N,[3],3
"C.1086 UFO gp140 (Uncleaved preFusion Optimized, no disulfide linkage between A501 and T605) (natural protein)",stoichiometry N,[4],3
same,stoichiometry N,[5],3
